Measured values published in the supplement of paper PMC12764529.
± gives the half width of the 95% confidence interval.

Test: folding stability dG unfold from trypsin proteolysis; higher = more stable
Procedure, shortened: (§1)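 Only designs with AlphaFold2 dimer inter-PAE above 15 were retained; each was a mini-protein under 80 residues with no cysteine, in a PA-tagged cDNA display construct. After digestion with trypsin and chymotrypsin and sequencing, K50 was inferred by Bayesian fitting of counts, and unfolding free energy was derived per protease or combined against a sequence-predicted unfolded-state K50 and a shared folded-state K50.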

| Sequence | folding stability dG unfold [kcal/mol] |
| --- | --- |
| SAGELKITIAVFRPVEKDENGKEVKVELVEVKTITISKEDLTEEEILKLAEELKKKFPNTVILVTIEPSAGG [r19_369_TrROS_Hall] | 2.59 ± 0.23 |
| SAGGMEIKVTVEKREDGYLVVTVEKAESKEEAIEAIKKELREKYPDAEITITDKDGNTIVIKLKDLKSAGGS [r8_236_TrROS_Hall] | 1.16 ± 0.071 |
| SAGGMIRIERDGDRLTIEIHLPEGEELTPEQLEELARALLEELGPDARVVRVERLEDGTVRIEVELPSAGGS [r8_103_TrROS_Hall] | 3.32 ± 0.14 |
| SASSELLELLKALPTPEVPTDPIFTLEEPDRPIRVLSYDPETGLVTMLIPGTGARLIRDPASGTYTLLPSAG [r14_359_JUSTAS] | -0.184 ± 0.07 |
| SAGGSAGGSASSMVTVTVSVSPDEGDEEVAKEIAKELGRPDAKVTKITYDPATGTLTITLVDSAGGSAGGSA [r18_481_JUSTAS] | 1.61 ± 0.067 |
| SAGGSADELVVRLRVRDPRTERPLEIDLPVPASLTPEEAIARAERLAAAFRSLGLETEVEVEPVPRSAGGSA [r15_268_TrMRF] | 1.45 ± 0.035 |
| SAGGSAGGSAGGMKVIPFESLEEAREYIKANPDENVLLEFPDALLELTKPDDIKKIEKKPSAGGSAGGSAGG [r7_532_JUSTAS] | -0.0919 ± 0.12 |
| SAGGSAGGGSLSKPKKYELVATFTFPGTVEEAKEFLEKLLPEDWKVEIEETPDFLKIKLYKRLDSAGGSAGG [r6_952_TrMRF] | 4.07 ± 0.13 |
| SAGGSAGGSGKVLVLPLPGGTVEEVKEIAKEIKEKYPNAKVTTEVFPTPEGDLVAVVTLENPESAGGSAGGS [r12_425_TrMRF] | 0.307 ± 0.11 |
| SPKIKIVSVSRTAGGALVALLELEDRPITLYRPLALPYILASAEIPGTNEVKTILAPSSISPEEIAKLLGSA [r9_522_TrMRF] | 1.59 ± 0.037 |
| SAGGAPSSFSTSSDPDGTQLLVVTEPGSGKPRTVRIPPGLNEAVTIPPSRSVSSVELVRVSPASPALLSAGG [r13_122_JUSTAS] | -1.16 ± 0.46 |
| SAGGMKVTVYPDGTVSVEIEPGQTLTVSLGDKEYTVTAEYPSITITTTPVPVPPPAVPPENVDPSLVSAGGS [r16_600_JUSTAS] | 1.54 ± 0.11 |
| SAGGSAGGSKNMVMVEIPFEHKVKQPDPPDGKWRQHEHKPTIPYMIPPEDAEELLNSPALKKISAGGSAGGS [r12_1015_TrROS] | 0.138 ± 0.2 |
| SAGGWQKVEFMIEIPGGGSLDQAKDEVEEFADYLRKKAGFKDVDVDVQVDPDGWVYVMVEIEVPPNASAGGS [r8_3_TrROS] | 1.06 ± 0.04 |
| SAGGTRTIWFPVDDIREALPPDNIKKVEVEPVGPENNWYKVTIEFPDYKIEIQYYPEEPGMFMVTITDSAGG [r13_942_TrROS] | 0.791 ± 0.085 |
| WLKFPFPIYNPGFGRPAKFEIELWPDGQLQVTWNGQPILSIPIRIVPPPEVEVDPEYDPNGKEKPKWKYPGS [r1_496_TrROS] | 0.438 ± 0.22 |
| SAGGSAGGSMEVNLKVTVTYPDGTVVELEIPKVSTEDGKSVEDVAKEIEALPDVKEVEVEIVESAGGSAGGS [r12_199_JUSTAS] | 0.847 ± 0.13 |
| SAGGSAGGSAGGDNFEIEPDISWNPDYGYISIDWTVTIGGKEQPFTIMIPVRLPPPPEDDSAGGSAGGSAGG [r7_413_TrROS] | 1.41 ± 0.099 |
| SAGGSAGGSAGGMTLRIRVRNKDGKVLEIEVEVDEDKTPEEVARELAKKLNVEKVEIFPSAGGSAGGSAGGS [r10_400_TrROS_Hall] | 2.2 ± 0.07 |
| SAGGKPPKIVVKVEKAPNPETGTYTYKVVLYDPVTGKAYVKPVKTKTPEELEKKAKEVAEELAKELASAGGS [r8_480_TrMRF] | 0.727 ± 0.025 |
| SAGGSAGGSAGNYMVRLEIEMPENGRKVEWMVPEDDPEEILEKFPWLKEHGMEVKIEVFPSAGGSAGGSAGG [r17_176_TrROS] | 0.236 ± 0.037 |

Test: folding stability dG unfold (combined trypsin and chymotrypsin); higher = more stable
Procedure, shortened: as §1

| Sequence | folding stability dG unfold [kcal/mol] |
| --- | --- |
| SAGGSEEKVFEFEVVEVTSVEVKEDGTVTIEVTVRLENGLLLTVRVTFDLATNEVTIEVELRPLPESAGGSA [r2_321_TrROS_Hall] | 4.41 ± 0.2 |
| SAGGSAGGSAGGSKTLTPEEIKKLLDEAKKKGYKTVKITVKNKNGKTYTFTIKIPKEDLSAGGSAGGSAGGS [r4_342_TrROS_Hall] | 2.95 ± 0.23 |
| SAGGSAGGSAGETVTLTLTVTVTRTYYDAETGEEVEQETETRTLTLTMSKEELERLLKELSAGGSAGGSAGG [r17_283_TrROS_Hall] | 4.44 ± 0.17 |
| SAGGSAGGSAGSLTFQLPNGTEITVTEITLEIKLPNGDVILIKITVDPEPPVTTEVTFVNSAGGSAGGSAGG [r11_804_JUSTAS] | 1.64 ± 0.13 |
| SAGGSAGGSPGKPKTIPVEMVFFNPEDGYFFEMRSEIYVPPDGNLQIDISIELYPVPPNAPLISAGGSAGGS [r12_116_TrROS] | 1.84 ± 0.18 |
| SAGGSAETLVITLPPELEGLSEEELLALLKALLPPGAEITEIRVERLPDGSLRVTVTVRVPPPEEPSAGGSA [r15_451_TrROS_Hall] | 2.65 ± 0.15 |
| SAGGSAGGSAGGKPKVIEIEITDKNGKKRKIKLIEKDGYVYLYDEKTGKLVKKFKLKDLSAGGSAGGSAGGS [r10_589_TrROS_Hall] | 3.61 ± 0.14 |
| SAMVLVKIELYDPENEEPLATAEFVVPEEDLEAFVEEAKKIFGVAEDAFIKVEAAPLEPLTDESGEEVLSAG [r14_297_TrMRF] | 1.94 ± 0.062 |
| NKAQKLARSLARKFMRPHGYPMEIDPENNSIRFPNGEPIMEIPIDIVLLDDDGKIVEEINIPIRIRMRPPKS [r1_318_TrROS] | 0.762 ± 0.23 |
| SAGGSAGGSADELLDKLLNHKWLRDAMEKAPPGMEEIDIELPDGGKIRIRRTPNGGFRLEPSAGGSAGGSAG [r3_124_TrROS] | 1.76 ± 0.087 |
